Experimental data as given in patent US10513563.

Molecular target: transferrin receptor on H4IIE hepatoma cells (rat) (UniProt Q99376)
Experiment: cell-based or functional assay

UniProt Q99376, sequence (Q99376 whole entry): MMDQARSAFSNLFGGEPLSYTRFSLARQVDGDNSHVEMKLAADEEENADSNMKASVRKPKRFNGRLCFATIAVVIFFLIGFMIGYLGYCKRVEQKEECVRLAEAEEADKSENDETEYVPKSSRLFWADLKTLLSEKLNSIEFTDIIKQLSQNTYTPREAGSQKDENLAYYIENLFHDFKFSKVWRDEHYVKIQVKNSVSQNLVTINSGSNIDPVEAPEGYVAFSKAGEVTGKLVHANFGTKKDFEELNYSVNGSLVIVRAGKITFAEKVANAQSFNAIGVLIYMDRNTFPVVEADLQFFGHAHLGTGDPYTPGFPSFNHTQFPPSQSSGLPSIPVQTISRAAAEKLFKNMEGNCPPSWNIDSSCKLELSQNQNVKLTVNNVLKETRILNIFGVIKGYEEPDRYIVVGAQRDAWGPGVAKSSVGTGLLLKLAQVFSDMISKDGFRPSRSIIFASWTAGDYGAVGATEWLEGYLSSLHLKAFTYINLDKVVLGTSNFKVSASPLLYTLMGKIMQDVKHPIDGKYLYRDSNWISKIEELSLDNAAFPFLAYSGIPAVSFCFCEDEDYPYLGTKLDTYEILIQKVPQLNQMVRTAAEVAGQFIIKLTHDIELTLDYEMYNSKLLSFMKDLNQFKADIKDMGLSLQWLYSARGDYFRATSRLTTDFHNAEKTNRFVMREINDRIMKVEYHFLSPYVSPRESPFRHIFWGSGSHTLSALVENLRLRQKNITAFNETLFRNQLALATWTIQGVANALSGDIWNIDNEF

Which results are given for “PI-Tf fusion protein (proinsulin-transferrin recombinant fusion protein)”?
IC50 of inhibition of glucose production in H4IIE cells (24 hr treatment): 4.6 pM; activity in inhibition of glucose production in H4IIE cells relative to proinsulin and insulin: 300 fold
